Measured values: patent publication US20130171217A1, “ENZYMATIC PERACID GENERATION FOR USE IN SKIN CARE PRODUCTS” (E I DU PONT DE NEMOURS AND COMPANY, priority 2010, published 2013)

How the values were obtained:
[1] = Perhydrolase activity of targeted hydrolases, ABTS assay; assay type: biochemical
Description: The ABTS assay was performed as follows: hair samples treated as described above were transferred to new 2-mL microcentrifuge tubes (Eppendorf Protein LoBind; Eppendorf North America, Hauppauge, N.Y.) To each tube was added 480 μL of PAH buffer ([…]), 14 μL of 39% hydrogen peroxide (Sigma 3410), and 6 μL triacetin (Sigma-Aldrich W200700). The perhydrolase reaction was allowed to proceed for 10 minutes at room temperature (˜22-25° C.). The reaction was stopped by diluting aliquots 10×, 100× and 1000× with 10 mM phosphoric acid. For detection 50 μL of 1 M acetic acid, 50 μL of 40 mg/mL potassium iodide, and 50 μL of 4 mM ABTS (2,2′-azino-bis(3-ethylbenzthiazoline-6-sulphonic acid; Sigma, St Louis, Mo.) were added to 50 μL of the above dilutions. Color was allowed to develop for 10 minutes and read in a spectrophotometer at 405 nm. Values from no-enzyme controls were subtracted to yield values attributable only to enzyme activity. A standard curve of OD 405 nm vs PAA concentration in ppm yielded a conversion factor of 8.75, such that an OD 405 nm of 1.0 corresponded to approximately 8.75 ppm PAA. This value was then multiplied by the appropriate dilution to arrive at the PAA concentration in the perhydrolase reaction.
The perhydrolase activity of the enzymes targeted to hair with a variety of targeting domains produced as described in Example 32 was measured with the ABTS assay.

[2] = One-step enzymatic PAA generation, HPLC peracetic acid assay; assay type: biochemical
Description: Determination of the peracetic acid (PAA) concentration in the reaction mixtures was performed according to the method described by Pinkernell et al., Anal. Chem. 1997, 69(17):3623-3627. Aliquots (0.040 mL) of the reaction mixture were removed at predetermined times and mixed with 0.960 mL of 5 mM phosphoric acid in water; adjustment of the pH of the diluted sample to less than pH 4 immediately terminated the reaction. The resulting solution was filtered using an ULTRAFREE® MC-filter unit (30,000 Normal Molecular Weight Limit (NMWL), Millipore cat #UFC3LKT 00) by centrifugation for 2 min at 12,000 rpm. An aliquot (0.100 mL) of the resulting filtrate was transferred to 1.5-mL screw cap HPLC vial (Agilent Technologies, Palo Alto, Calif.; #5182-0715) containing 0.300 mL of deionized water, then 0.100 mL of 20 mM MTS (methyl-p-tolyl-sulfide) in acetonitrile was added, the vials capped, and the contents briefly mixed prior to a 10 min incubation at ca. 25° C. in the absence of light. To each vial was then added 0.400 mL of acetonitrile and 0.100 mL of a solution of triphenylphosphine (TPP, 40 mM) in acetonitrile, the vials re-capped, and the resulting solution mixed and incubated at ca. 25° C. for 30 min in the absence of light. To each vial was then added 0.100 mL of 10 mM N,N-diethyl-m-toluamide (DEET; HPLC external standard) and the resulting solution analyzed by HPLC (Waters Alliance 2695, Waters Corporation; MA).
Supelco Discovery C8 column (10 cm×4.0-mm, 5 μm) (cat. #569422-U) w/precolumn Supelco Supelguard Discovery C8 (Sigma-Aldrich; cat #59590-U); 10 microliter injection volume; gradient method with CH3CN (Sigma-Aldrich; #270717) and deionized water at 1.0 mL/min and ambient temperature:
The first method (referred to herein as the “one-step approach”) comprises combining different amounts of at least one CE-7 perhydrolase with triacetin (an example of a suitable ester substrate) and hydrogen peroxide to generate peracetic acid. Hair bundles were inserted into “one step approach” solutions for 15 min immediately after mixing the enzyme solution with triacetin solution (final concentration was about 100 mM) and H2O2 solution (final concentration was about 250 mM). The hair samples were rinsed with water and dried. The method was repeated for another 15 times (total application was 16 times). In one experiment, two perhydrolase enzymes were used, i.e., untargeted T. maritima variant C277S (“C277S”; “PAH”; SEQ ID NO: 293) and “C277S-HC263” (SEQ ID NO: 288). The concentration of peracetic acid in solution after 15 min was evaluated by HPLC.

[3] = Retention of perhydrolase on hair detected by hydrolase activity; assay type: binding; settings: for Activity in the first TWEEN®-20 wash / Activity retained on hair after 4 TWEEN® 20 washes / Activity unbound: hydrolase activity; for Activity in the first TWEEN®-20 wash: 1% TWEEN®-20; for Activity retained on hair after 4 TWEEN® 20 washes: 4 washes 1% TWEEN®-20 and 2 buffer washes; for Activity unbound: ~20 mg hair, binding 30 min; for 100% activity (hydrolase activity added to the tube): tube containing ~20 mg of hair, not subjected to washes
Description: For hair binding experiments brown hair tresses (International Hair Importers and Products, Glensdale N.Y.) were used. The hair was washed with 2% SLES, rinsed extensively with deionized water and air dried.
Around 20 mg of 1 cm brown hair fragments was added in a 1.8-mL microfuge tube. Hydrolase assay buffer (1.2 mL) as added to the hair followed by the addition of the perhydrolase enzymes to the solution. The enzymes were allowed to bind the hair for 30 min with gentle agitation (24 rpm) on an Adams Nutator (model 1105, Becton Dickinson, Franklin Lakes, N.J.). No enzyme controls, with hair and without hair, were included in the binding experiment to account for non-enzymatic hydrolysis of the pNPA hydrolase reagent. After the binding step, a 1.0-mL aliquot of the binding buffer was transferred to a new tube to quantitate the amount of unbound enzyme. Additional binding buffer was removed and the hair fragments were washed 4 times with 1 mL of 1% TWEEN®-20 in hydrolase buffer, followed by 2 washes with 1 mL each in hydrolase buffer. The hair fragments were then resuspended in 1 mL of hydrolase assay and the hydrolase activity that remained bound to the hair was measured. The C277S (“PAH”) variant of Thermotoga maritima perhydrolase (SEQ ID NO: 293) was used as a control for an un-targeted perhydrolase.

| Molecule | Specific perhydrolase activity ([1]; triacetin at pH 7.5) [µmol/mg/min] | PAA ([2]; 0.05 mg/mL enzyme, urea 10 wt %, after 15 min) [ppm] | PAA ([2]; 0.25 mg/mL enzyme, urea 10 wt %, after 15 min) [ppm] | PAA ([2]; 0.5 mg/mL enzyme, urea 10 wt %, after 15 min) [ppm] | Activity in the first TWEEN®-20 wash [3] [%] | Activity retained on hair after 4 TWEEN® 20 washes [3] [%] | Activity unbound [3] [%] | 100% activity (hydrolase activity added to the tube) [3] [µmol/min] | Specific perhydrolase activity ([1]; 1 m Na acetate at pH 5.5 instead of triacetin) | PAA generated ([2]; 0.05 mg/mL enzyme) | PAA ([2]; 0.05 mg/mL enzyme, urea 0 wt %, after 15 min) [ppm] | PAA ([2]; 0.25 mg/mL enzyme, urea 0 wt %, after 15 min) [ppm] | PAA ([2]; 0.5 mg/mL enzyme, urea 0 wt %, ~100 mM triacetin, ~250 mM H2O2, after 15 min) [ppm] | perhydrolase activity lower than C277S ([2]; same weight basis, under testing condition) |
| --- | --- | --- | --- | --- | --- | --- | --- | --- | --- | --- | --- | --- | --- | --- |
| SEQ ID NO: 323: S54V variant of the aryl esterase from Mycobacterium smegmatis fused to hair binding domain HC263 via a flexible linker (protein) MAKRILCFGDSLTWGWVPVEDGAPTERFAPDVRWTGVLAQQLGADFEVIEEGLVARTTNIDDPTDPRLNGASYLPSCLATHLPLDLVIIMLGTNDTKAYFRRTPLDIALGMSVLVTQVLTSAGGVGTTYPAPKVLVVSPPPLAPMPHPWFQLIFEGGEQKTTELARVYSALASFMKVPFFDAGSVISTDGVDGIHFTEANNRDLGVALAEQVRSLLGPGSGGAGSPGSAGGPGSPSAQSQLPDKHSGLHERAPQRYGPEPEPEPEPIPEPPKEAPVVIEKPKPKPKPKPKPPAHDHKNQKETHQRHAAGSGGGGSPHHHHHH | 270 |  |  |  |  |  |  |  |  |  |  |  |  |  |
| C277S: non-targeted C277S variant of the Thermotoga maritima perhydrolase, un-targeted control (protein, listed as Thermotoga maritima) MAFFDLPLEELKKYRPERYEEKDFDEFWEETLAESEKFPLDPVFERMESHLKTVEAYDVTFSGYRGQRIKGWLLVPKLEEEKLPCVVQYIGYNGGRGFPHDWLFWPSMGYICFVMDTRGQGSGWLKGDTPDYPEGPVDPQYPGFMTRGILDPRTYYYRRVFTDAVRAVEAAASFPQVDQERIVIAGGSQGGGIALAVSALSKKAKALLCDVPFLCHFRRAVQLVDTHPYAEITNFLKTHRDKEEIVFRTLSYFDGVNFAARAKIPALFSVGLMDNISPPSTVFAAYNYYAGPKEIRIYPYNNHEGGGSFQAVEQVKFLKKLFEKG |  | 6448 | 14053 | 13656 | 5 | 1 | 103 | 148 |  |  |  |  |  |  |
| C277S-HC263: C277S variant of Thermotoga maritima perhydrolase fused via a flexible linker to hair-binding domain HC263 (protein) MAFFDLPLEELKKYRPERYEEKDFDEFWEETLAESEKFPLDPVFERMESHLKTVEAYDVTFSGYRGQRIKGWLLVPKLEEEKLPCVVQYIGYNGGRGFPHDWLFWPSMGYICFVMDTRGQGSGWLKGDTPDYPEGPVDPQYPGFMTRGILDPRTYYYRRVFTDAVRAVEAAASFPQVDQERIVIAGGSQGGGIALAVSALSKKAKALLCDVPFLCHFRRAVQLVDTHPYAEITNFLKTHRDKEEIVFRTLSYFDGVNFAARAKIPALFSVGLMDNISPPSTVFAAYNYYAGPKEIRIYPYNNHEGGGSFQAVEQVKFLKKLFEKGGPGSGGAGSPGSAGGPGSPSAQSQLPDKHSGLHERAPQRYGPEPEPEPEPIPEPPKEAPVVIEKPKPKPKPKPKPPAHDHKNQKETHQRHAAGSGGGGSPHHHHHH |  |  |  |  | 9 | 54 | 52 | 53 | The perhydrolase activity of the fusions of the Pseudomonas fluorescens hydrolase was assayed using 1 m Na acetate at pH 5.5 instead of triacetin at pH 7.5 Targeted Perhydrolases HC1121 (C277S-HC263; SEQ ID NO: 288) had no detectable perhydrolase activity with acetate as a substrate. | about 0.2 wt % | 1983 | 3948 | 4132 | 2-3 times |
